Data reported in patent publication US20090042785A1.

Assays:
[1] = biological target: mouse CTLA-4 Fc (Chimerigen) (mouse) (UniProt P09793); experiment: FACS competition: inhibition of 2.5 nM mCTLA-4 Fc binding to Raji cells (B7.1, B7.2)
[2] = biological target: human CTLA-4 on the cell surface (transfected CHO and A431 cells; CD152-expressing cells of human tonsil) (human) (UniProt P16410); experiment: indirect immunoperoxidase staining of cryosections; CD152-expressing cells in human tonsil (positive control tissue), source HT343; 5 µg/mL; scale ± to 4+ (4+ = intense)
[3] = biological target: human CTLA-4 on the cell surface (transfected CHO and A431 cells; CD152-expressing cells of human tonsil) (human) (UniProt P16410); experiment: indirect immunoperoxidase staining of cryosections; spleen HT337, mononuclear cells, white pulp (membrane, frequent); 5 µg/mL [Fig.20 continued, no label on the sheet]
[4] = biological target: human CTLA-4 on the cell surface (transfected CHO and A431 cells; CD152-expressing cells of human tonsil) (human) (UniProt P16410); experiment: indirect immunoperoxidase staining of cryosections; kidney HT268, mononuclear cells, interstitial, inflammatory (membrane, rare); 5 µg/mL [Fig.20 continued, no label on the sheet]
[5] = biological target: human CTLA-4 on the cell surface (transfected CHO and A431 cells; CD152-expressing cells of human tonsil) (human) (UniProt P16410); experiment: indirect immunoperoxidase staining of cryosections; tonsil HT664, mononuclear cells, follicular>>interfollicular (membrane); 5 µg/mL [Fig.20 continued, no label on the sheet]
[6] = biological target: human CTLA-4 on the cell surface (transfected CHO and A431 cells; CD152-expressing cells of human tonsil) (human) (UniProt P16410); experiment: indirect immunoperoxidase staining of cryosections; CD152-expressing cells in human tonsil (positive control tissue), source HT662; 5 µg/mL; scale ± to 4+ (4+ = intense)
[7] = biological target: human CTLA-4-Fc (Chimerigen) (human) (UniProt P16410); experiment: competition FACS: 2.5 nM human CTLA-4 Fc pre-incubated with the antagonist, then staining of Raji cells; % inhibition of CTLA-4 Fc binding; blocked ligands B7.1 and B7.2
[8] = biological target: human CTLA-4-Fc (Chimerigen) (human) (UniProt P16410); experiment: FACS competition: inhibition of 2.5 nM hCTLA-4 Fc binding to Raji cells (B7.1, B7.2)
[9] = biological target: human CTLA-4-Fc (Chimerigen) (human) (UniProt P16410); experiment: competition FACS: HuCTLA4-Ig 5 ug/ml (as printed on the axis) pre-incubated with the antagonist, then staining of P815 cells transfected with human B7.2; blocked ligand B7.2

IC50 [1] [nM]	staining intensity grade [2]	staining intensity grade [3]	staining intensity grade [4]	staining intensity grade [5]	staining intensity grade [6]	IC50 (read off the curve) [7] [nM]	IC50 [8] [nM]	IC50 (read off the curve) [9] [nM]	Substance
4.1	–	–	–	–	–	–	–	–	anti-mouse CTLA-4 monoclonal antibody 4F10 (hybridoma UC10-4F10-11, ATCC #HB-304)
–	4 +	4 +	4 +	4 +	4 +	2	2.1	–	anti-human CTLA-4 monoclonal antibody BNI3 (Becton Dickinson)
–	–	–	–	–	–	–	1.9	50	anti-human CTLA-4 monoclonal antibody 14D3 (eBioscience)
